Experimental findings from the DeepSol protein solubility set are described below.

A short description of the series: soluble on expression in E. coli; label from the status in PepcDB or PDB records.
Turning to “MSLSNSLLPPNASGLERDIEQVIVQSTDLPIRIKDLWNPYSCHLSLLPWLAWALSVDEWDDRWPEHIKRQVVQDSFDVHRFKGTPYAVQKALDSLNIKTHLREWWEPDGSQEPGTMTVVALINENLTDDDNGLITEAMLEQVTRVIHTAKRGVIHFDVELGISLDETLGFSGAIGPSIAEIDFSSDFLPIVPEKGSADMAFSAALYGIGSADFLADMSGVVPDESSSHVFVCGGLAGISASWLEFEGDLEGHHHHHH”, the “soluble on expression in E. coli” value is “soluble”.
Consider “MSLSNTPIELKGSSFTLSVVHLHEAEPEVIRQALEDKIAQAPAFLKHAPVVINVSGLESPVNWPELHKIVTSTGLRIIGVSGCKDASLKVEIDRMGLPLLTEGKEKAVRPAPVEPATPSEPPQNANPITKTRLIDVPVRSGQRIYAPQCDLIVTSHVSAGAELIADGNIHVYGMMRGRALAGASGDREAQIFCTHLTAELVSIAGVYWLSDKIPAEFYGKAARLRLADNALTVQPLNEGHHHHHH”, for which the “soluble on expression in E. coli” value was “soluble”.
In the case of “MSLSPPILVGFSGPLTGVNSDLGVQGRNGAQLAIEHINAGGGINGRQLELLSMDDGPTAESARDADSALLRQGVVAIIGHMTSNQAIAGLPVVEQHGAVMIAPTVSTPLLTGKRDGFFRLMPDNDSWAYATADYALAQGLKTVSVIYETANQAFAGSFVDGFVTQFEAGGGRLLQRIPFTSAQRDTLEAAAIRAVSTNPDTIVLAASARDTAALAQFIDAHDSPRPVLLSSSWAYTREIFLAGGRAVEGIVFTISYLPDDTREGYLAFRKAYTERFGWEPNFAAALAYESAKVLAAALRRTGGRAQGLREALAAGTPVQGISETVTLDQYGDVQRPPYIVTIRNGEFVSIQEGHHHHHH”, the “soluble on expression in E. coli” value was “soluble”.
On to “MSLSRTTQLPFAKRQFFQVLARNYSNTQDADLVVIGGGPGGYVAAIKAAQLGMKTVCVEKNATLGGTCLNVGCIPSKALLNNSHYLHMAQHDFAARGIDCTASLNLPKMMEAKSNSVKQLTGGIKQLFKANKVGHVEGFATIVGPNTVQAKKNDGSVETINARNILIASGSEVTPFPGITIDEKQIVSSTGALSLGQVPKKMVVIGAGVIGLELGSVWQRLGAEVTAVEFLGHVGGMGIDGEVSKNFQRSLTKQGFKFLLNTKVMGASQNGSTITVEVEGAKDGKKQTLECDTLLVSVGRRPYTEGLGLSNVQIDLDNRGRVPVNERFQTKVPSIFAIGDVIEGPMLAHKAEDEGILCVEGIAGGPVHIDYNCVPSVVYTHPEVAWVGKAEEQLKQEGVAYKIGKFPFVANSRAKTNNDQEGFVKVLADKQTDRMLGVHIIGPNAGEMIAEATLAMEYGASAEDVARVCHPHPTLSEAFREANLAAYCGKAINNV”, for which the “soluble on expression in E. coli” value is “not soluble”.
Consider “MSLSSAQQWSYVRQLQREIRRSDVLDLPLEKLPVVVFDLETSGFYPDQGDRILSIGAVKVVGLTIQEEETFYSVVHTDTVPPENILELTGLSVEELEAAPPLTSVLESFYAFIRHSTLVAHHASHEKAFMSHVTWQTMKLPFEHRVIDTSFLTKIVAPQELVTLDDCCAYYSIPVQNRHHAFEDSLMTAKLWIAAIAAAREAGFETLRDIYVHLAHQREGHHHHHH”, for which the “soluble on expression in E. coli” value is reported as “soluble”.
The same measure for “MSLSSCEVLTSLGERMILIRGLTRVITFDDQERELEDADILIDGPKIVAVGKDLSDRSVSRTIDGRGMIALPGLINSHQHLYEGAMRAIPQLERVTMASWLEGVLTRSAGWWRDGKFGPDVIREVARAVLLESLLGGITTVADQHLFFPGATADSYIDATIEAATDLGIRFHAARSSMTLGKSEGGFCDDLFVEPVDRVVQHCLGLIDQYHEPEPFGMVRIALGPCGVPYDKPELFEAFAQMAADYDVRLHTHFYEPLDAGMSDHLYGMTPWRFLEKHGWASDRVWLAHAVVPPREEIPEFADAGVAIAHLIAPDLRMGWGLAPIREYLDAGITVGFGTTGSASNDGGNLLGDLRLAALAHRPADPNEPEKWLSARELLRMATRGSAECLGRPDLGVLEEGRAADIACWRLDGVDRVGVHDPAIGLIMTGLSDRASLVVVNGQVLVENERPVLADLERIVANTTALIPKNLEGHHHHHH”: “not soluble”.
“MSLSSDMEGGMITMKANDTTKYLIHAEIEAEGVVERPDVVGAIFGQTEGLLGGDLDLRELQKTGRIGRIEVKIESKGGRSFGEIKVPSSLDKVETAILAAALETIERVGPCSAKIKVLKIEDVRASKRKRIVERAMNILREHFEEPEIESERIVEIVRQAIRADEIVEYGEEKLPAGPAIDESDAIIVVEGRADVLNLLKHGIKNVIAVEGTNIPKTIVELSKKKTVTAFLDGDRGGDLILKELLQVAEVDYVARAPEGKEVEDLTQKEILKSLRNKVPVEQLHVLKKEAKEGREREKLAEMPKDSISDVLRKHTESVKGRLTARVLDRNLNVIKEVPVRDLVKILKTNNMKGSAIVFDGIITQRLIDLAAKKEFDYIVGVRLGSVVKVPTSLRVITFDQLEGHHHHHH”: the “soluble on expression in E. coli” value is “not soluble”.
The same measure for “MSLSSDSQEIRRSILSKWHKTLSKYGNLFSSDTISGTSPPSVFVGSYNYPKVFVGPMVPPIHGDTSLLDSPEKWKGRSLEEIINFRLNLVRGIHKTGIEHTEGRYIENLQEITMSEKPTDLDLVFMKNTSSNISMDGESAPFGPTGEIKSAKFSGSSSTKPIEKIFYDKDMKAQDAVLKLYNSGIEISKIQKCFSIGMLGKKRKLVPTKWSITATDDIISKSIVKEILENSIIDTCKVFSYEHLGNVFSVILFPHRWIFEMIEGWYSNGILGFGSDSEDARGIDHPPRIAGAYFAAKLGVSEYLLKNKIQAGVLIFREIRPEYAIPVGVWQVREGIREAMKQKPQIVSDFNHALNLASAKTSVSKKEWIVNGDMINRVRQKTILDFMEGHHHHHH”: “not soluble”; for “MSLSSEHIQNKLALLPDQPGCYLMKDRQGTIIYVGKAKILKNRVRSYFSGTHDSKTQRLVQEIVDFEYIVTSSNVEALLLEINLIKKHDPRFNIRLKDDKTYPFIKITNERHPRLIITRQVKKDKGKYFGPYPNVYAANEVKRILDRLYPLRKCSTLPNKVCLYYHLGQCLAPCVFDVEASKYKEMQDEIVTFLNGGYKTVKNDLMKKMQEAAENMEFEKAGEFRDQINAIETTMEKQKMTMNDFVDRDVFGYAIDKGWMCVQVFFIRQGKLIERDVSQFPFYNDADEDFLTFIGQFYQKANHIPPKEIYLPDDVDSEAVQAVVPDTKIIVPQRGNKKDLVKLAYKNAKIALNEKFMLLERNEERTVGAVERLGEAMGIPTPSRVEAFDNSNIHGTDPVSAMVTFLDGKPSKNDYRKYKIKTVEGPDDYATMREVIRRRYWRVLKEELPMPDLILIDGGKGQIDSAKDVLTNELGLDIPVAGLAKDDKHRTSQLLFGDPLEIVPLERNSQEFYLLQRMQDEVHRFAITFHRQLRSKTGFQSILDGIPGVGPGRKKKLLKHFGSMKKLKEASVEEIKEAGVPLNVAEEVHKHITAFNEGHHHHHH”: “soluble”; for “MSLSSKRDIEANTDLNSITYIPTFPEPFERDNSHTTASFVSIQIRLLVASVTEENFLDTEHQIYYLLQRGSFSVYISYWKLLIQLFVNEFEAQQQKRDLNLPFRFDFSNLVHRLLYNLAQELITRTPDTIEKVKELALPLSGKYPIRPLFLSFLNKDNESDSAIIEALNPEVHPIFTTLKDLHRTNMSVSNITQNLFAVENKPNFLTMLSEFLKPLQGETLNDWIALILSEILAPGSQTSNQPSQPWIVQVPNVDVREVIEATEMGTKVNGIIKSLGTNNVNWNRVFNLMSTKFFLNKPVNATLSSLNYLFCILNSGPLVDQFFACDWSLYFKLRLSFLMYQWNYNSECLDLSSLPNIKKINKSIPLTKKSQLSLISVGKLNIELFLSRDEISKNPLFSSFHASFSEAYNNVPEYLAAVLISESKYFSLLVDNKSIIDELLISLVIKTYENNVIAFKELLKLVSKQKVIEVSRGIIASQNAQTINLVQALHDLGILDEVFEKLPIRDSLKLSPTAMHLGYLKFSEYIERNITLKTFVPTLDFIEAQTNIDELDPALKSVKLLNLHSLHSLIYRTANLKLSADERVALNNVIFKALISFPRLINYGYGHDDAIVANGDHAPIPQDVEKKMQTYLQKMYNKEMAIKDIVDILRKLRDSDDSNDQDIFCCIIHAVIAETTFFKEYPLEALATTSVLFGSMILFDLLRGFVLDVAFQIIYTFASESPDSKMFKFAVQALYAFRMRLNEYSPFCKRLLDEIPGLQTQPQIQQILTESAANPNVSEGHHHHHH”: “soluble”.
The same measure for “MSLSVEQANLILNHLPMEITFVNKEDIFQYYNDNTPADEMIFKRTPSQVGRNVELCHPPKYLDKVKTIMKGLREGSKDKYEMWFKSESRGKFVHITYAAVHDEDGEFQGVLEYVQDIQPYREIDTDYFRGLEEGHHHHHH”: “soluble”.
The same measure for “MSLTADTKRPLTLRDVSEASGVSEMTVSRVLRNRGDVSDATRARVLAAAKELGYVPNKIAGALASNRVNLVAVIIPSLSNMVFPEVLTGINQVLEDTELQPVVGVTDYLPEKEEKVLYEMLSWRPSGVIIAGLEHSEAARAMLDAAGIPVVEIMDSDGKPVDAMVGISHRRAGREMAQAILKAGYRRIGFMGTKMPLDYRARKRFEGFTEVLGKNGVEIEDREFYSGGSALAKGREMTQAMLERSPDLDFLYYSNDMIAAGGLLYLLEQGIDIPGQIGLAGFNNVELLQGLPRKLATMDACRLEIGRKAAEIIAKRLEDPEAEIETRITLEPKISYGDTLKREGHHHHHH”: “soluble”.
For “MSLTADVDYPLLAKMRSASRRALTSLVDWFGTMAQDLDHQGLTTLAGELVSVARLLDREAVVTRYLTVPAEDATPRIRLIERLVSGKVGAPTLEVLRTAVSKRWSANSDLIDAIEHVSRQALLELAERAGQVDEVEDQLFRFSRILDVQPRLAILLGDCAVPAEGRVRLLRKVLERADSTVNPVVVALLSHTVELLRGQAVEEAVLFLAEVAVARRGEIVAQVGAAAELSDAQRTRLTEVLSRIYGHPVTVQLHIDAALLGGLSIAVGDEVIDGTLSSRLAAAEARLPDEGHHHHHH”, the “soluble on expression in E. coli” value is recorded as “soluble”.
Take “MSLTAIHRPTWVSVDLDAAAHNLQEIREWTKAKKVYAVLKADGYGLGAIPLAKAFQETASADALIVSNLDEALELRQADLTLPIWVLGAWDYSDLKLFIDHDIVITIPSLAWLQNLPDFEGTLKVSLAIDTGMTRIGFDKADEISAAKKIIDKNPQLDLFSVYTHFATADEAGEKSKAYFEEQLRRWQELTINQGFDPSLFSMANSATCIWHHDDPRISFAAIRPGQLISGVNVSNGELKMPPNLHLERIFSVCSEIADVRFVKKDQSLSYGASERMPEDGYVATLPFGYNDGWLRRMQKSSVIINGKRMPIIGRITMDQTMVKLDRKYPIGTRVTLIGKDGGEQITVEEVANYSHTIVDEIQTTLAPRIKRIYTGDLAEVIGANYGEGHHHHHH”: the “soluble on expression in E. coli” value is reported as “soluble”.
The same measure for “MSLTARIGVVTFPGSLDDRDTQRAIKLAGAEPVALWHKDKDLKQVDAVVLPGGFSYGDYLRAGAISRFSPVMETVIEQAKSGMPVLGICNGFQILTEAHLLPGAMLGNNHLHFICRDQKLRVENADTAWTSDYEAGQEIHIPLKNMDGRYVADERTLDMLEAEGRVAFRYVVGGAAADGYGNPNGSLRDIAGITNEAGNVVGLMPHPEHAVEPLIGTGRTDGLPFFTSILKKLVNAEGHHHHHH”: “soluble”.
As for “MSLTDLDRVGLPVFQAVRPMGRSLSVSQGKGMTSMAARVSAMMEAVEIWHAEQDLPTTLRATIRSLGTRRAMDPNQLLMPGRDKVCEDLPIVWCPSLNLLDGADVLVPRDAANLDFTRAPDPPMLARSTTGLAGGNTRDEARASAIAEVIERACQREFQRLPPASRAQRRLDPTCLASAHRGLADPIERIRSAGLHLDIFDMTNRFDVPAIRAVIYETTAGKPVAWPCLGHGAHLDPVTAVVRALTEAAQARLTGISGNRDDISPGHYAGADMSNWVLRAMNGMDMSGTRRGLRHHDASGDSPAADVAAMIARITAHDADPLLEVDLSRPEIGVPVVKIIAPRIAYLASREGHHHHHH”, the “soluble on expression in E. coli” value is reported as “not soluble”.
